Test results taken from article PMC7116876, “Mechanistic Insights into Regulation of the ALC1 Remodeler by the Nucleosome Acidic Patch” (Cell reports, 2020).

Tests used:
[1] = tested on: individual WT/WT nucleosomes with 3 bp of linker DNA; test: smFRET remodeling, pause duration; assay type: biochemical, Xenopus laevis histones
Source text: (§1) The DNA constructs used in the nucleosome assembly for single-molecule and ensemble remodeling studies comprised the Widom 601 nucleosome positioning sequence ([Lowary and Widom, 1998]) as well as either 3 bp or 12 bp of linker DNA on one side and 78 bp on the other side (for the single-molecule remodeling construct) or 63 bp of linker DNA on one side and no linker DNA on the other side (for the ensemble remodeling construct). All constructs were 5’-labeled with Cy5 on the short linker end. The constructs for single-molecule experiments additionally featured a biotin on the long linker end. […] The DNA constructs for the assembly of nucleosomes used in fluorescence anisotropy experiments and ATPase assays comprised the Widom 601 positioning sequence without additional linker DNA (for the fluorescence anisotropy construct) or 63 bp of linker DNA on one side and no linker DNA on the other side (for the ATPase assay construct). […]
Using the DNA constructs for single-molecule FRET described above, we first generated oriented hexasomes with H2A-Cy3 on the short linker side using a salt dialysis method as described previously ([Dyer et al., 2004]; [Levendosky et al., 2016]; [Sabantsev et al., 2019]). […] Data were analyzed using custom scripts for the Fiji distribution of ImageJ ([Schindelin et al., 2012]; [Schneider et al., 2012]), IDL, and MATLAB ([Sabantsev et al., 2019]). […]

[2] = tested on: ALC1-catalyzed remodeling of WT/WT nucleosomes; test: Ensemble FRET nucleosome remodeling, WT/WT nucleosomes; assay type: biochemical, Homo sapiens ALC1; Xenopus laevis histones; conditions: WT/WT nucleosomes 10 nM, various remodeler concentrations, Michaelis-Menten
Source text: (§2) cDNAs for ALC1 and PARP1 were of Homo sapiens origin. Histone proteins (recombinantly expressed in E. coli) were of Xenopus laevis origin. Cell lines as well as growth conditions are described in the Method Details.
(§3) Oligonucleotides used in this study were ordered from IDT (see Table S3). The ALC1^fl (16-879) construct contains the human ALC1 sequence and a 6xHis-tag, as previously published ([Lehmann et al., 2017]). All point mutations were generated by PCR-based site-directed mutagenesis. The plasmid for human PARP1 (1-1014) with an N-terminal 6xHis-tag was a kind gift from John M. Pascal ([Langelier et al., 2017]).
as §1, with “construct).” for “construct). All constructs were 5’-labeled with Cy5 on the short linker end. The constructs for single-molecule experiments additionally featured a biotin on the long linker end.”
Nucleosome ensemble remodeling kinetics were measured by monitoring the Cy5 (under 620 nm and 520 nm excitation) and Cy3 (under 520 nm excitation) fluorescence emission signals of a solution of FRET-labeled nucleosomes using a Spark (Tecan) or CLARIOstar (BMG Labtech) multimode microplate reader. […] Reaction kinetics were analyzed assuming a standard Michaelis-Menten mechanism.
(§4) For fluorescence anisotropy binding experiments, the reported values represent the mean ± SEM from 3 independent experiments. […] For ensemble nucleosome remodeling time courses, each experimental condition was recorded in 3 independent experiments, and representative remodeling time courses are shown. […]

[3] = tested on: ALC1 ATPase with 145 bp dsDNA; test: DNA-stimulated ATPase activity; assay type: biochemical, Homo sapiens ALC1; conditions: 1 μM ALC1, 20 μM or 50 μM 145 bp dsDNA, 1 mM ATP; N = 3 independent experiments
Description: ATPase activity was measured using a coupled assay that measures ADP production as described previously, ([Willhoft et al., 2016]). Final concentrations of 0.45 mM NADH, 1.0 mM phosphoenolpyruvate, 54 U/ml pyruvate kinase (Sigma), and 78 U/ml lactic dehydrogenase (Sigma) were used. For measurements of nucleosome-stimulated ATPase activity, reactions contained 20 μM ALC1,2 μM WT/WT nucleosomes, and 1 mM ATP in a volume of 30 μl. Fluorescence was monitored (excitation wavelength: 340 nm; emission wavelength: 430 nm) at 37°C using a CLARIOstar microplate reader (BMG Labtech) and black low-volume 384-well microplates (Corning). For measurements of DNA-stimulated ATPase activity, the absorbance was monitored at 340 nm for reactions containing a final of 1 μM ALC1 and either 20 μM or 50 μM 145 bp nucleosomal double-stranded (ds) DNA in 100 μl. Reaction rates were determined using mean linear slopes. […]
as §4

[4] = tested on: ALC1 ATPase with WT/WT nucleosomes; test: Nucleosome-stimulated ATPase activity; assay type: biochemical, Homo sapiens ALC1; Xenopus laevis histones
Description: ATPase activity was measured using a coupled assay that measures ADP production as described previously, ([Willhoft et al., 2016]). Final concentrations of 0.45 mM NADH, 1.0 mM phosphoenolpyruvate, 54 U/ml pyruvate kinase (Sigma), and 78 U/ml lactic dehydrogenase (Sigma) were used. For measurements of nucleosome-stimulated ATPase activity, reactions contained 20 μM ALC1,2 μM WT/WT nucleosomes, and 1 mM ATP in a volume of 30 μl. Fluorescence was monitored (excitation wavelength: 340 nm; emission wavelength: 430 nm) at 37°C using a CLARIOstar microplate reader (BMG Labtech) and black low-volume 384-well microplates (Corning). For measurements of DNA-stimulated ATPase activity, the absorbance was monitored at 340 nm for reactions containing a final of 1 μM ALC1 and either 20 μM or 50 μM 145 bp nucleosomal double-stranded (ds) DNA in 100 μl. Reaction rates were determined using mean linear slopes. For measurements of nucleosome-stimulated ATPase activity, we estimated Vmax for both ALC1^fl R860W and ALC1^fl R611A/S612A/R860W using the Michaelis-Menten equation and the Km values that we obtained from nucleosome sliding kinetics in Figure 3B.
For fluorescence anisotropy binding experiments, the reported values represent the mean ± SEM from 3 independent experiments. For ATPase activity measurements, the reported values represent the mean ± standard deviation from 3 independent experiments. For ensemble nucleosome remodeling time courses, each experimental condition was recorded in 3 independent experiments, and representative remodeling time courses are shown. Relative remodeling rates derived from these curves represent the mean ± standard deviation from 3 independent experiments. For smFRET experiments, values are reported as mean ± SEM from several experiments as specified in the corresponding figure legends. For association kinetics from live-cell imaging, error bars represent SEM from N ≥ 131 traces from 3 independent experiments.

[5] = tested on: ALC1-catalyzed remodeling of APM/APM nucleosomes; test: Ensemble FRET nucleosome remodeling, APM/APM versus WT/WT nucleosomes; assay type: biochemical, Homo sapiens ALC1; Xenopus laevis histones; conditions: 20 μM remodeler, 10 nM nucleosomes, 1.5 mM ATP; n = 3 independent experiments
Source text: as §2, §3
as §1, with “construct).” for “construct). All constructs were 5’-labeled with Cy5 on the short linker end. The constructs for single-molecule experiments additionally featured a biotin on the long linker end.”

average binding time relative to average pause duration (pause fold shorter) ([1]; remodeler concentration 20 μM): 2.8 fold
fold reduction of ATPase rate versus ALC1^fl R860W ([4]; 20 μM ALC1, 2 μM WT/WT nucleosomes, 1 mM ATP, 37°C, n = 3 independent experiments): ~ 2.5 fold
B1: ALC1^fl R611A/S612A/R860W: ALC1^RLS Arg anchor (R611) and adjacent residue (S612) mutated to alanines (protein)
chain: FLLRLHTEGRAEAARVQEQDLRQWGLTGIHLRSYQLEGVNWLAQRFHCQNGCILGDEMGLGKTCQTIALFIYLAGRLNDEGPFLILCPLSVLSNWKEEMQRFAPGLSCVTYAGDKEERACLQQDLKQESRFHVLLTTYEICLKDASFLKSFPWSVLVVDEAHRLKNQSSLLHKTLSEFSVVFSLLLTGTPIQNSLQELYSLLSFVEPDLFSKEEVGDFIQRYQDIEKESESASELHKLLQPFLLRRVKAEVATELPKKTEVVIYHGMSALQKKYYKAILMKDLDAFENETAKKVKLQNILSQLRKCVDHPYLFDGVEPEPFEVGDHLTEASGKLHLLDKLLAFLYSGGHRVLLFSQMTQMLDILQDYMDYRGYSYERVDGSVRGEERHLAIKNFGQQPIFVFLLSTRAGGVGMNLTAADTVIFVDSDFNPQNDLQAAARAHRIGQNKSVKVIRLIGRDTVEEIVYRKAASKLQLTNMIIEGGHFTLGAQKPAADADLQLSEILKFGLDKLLASEGSTMDEIDLESILGETKDGQWVSDALPAAEGGSRDQEEGKNHMYLFEGKDYSKEPSKEDRKSFEQLVNLQKTLLEKASQEGAALRNKGSVLIPGLVEGSTKRKRVLSPEELEDRQKKRQEAAAKRRRLIEEKKRQKEEAEHKKKMAWWESNNYQSFCLPSEESEPEDLENGEESSAELDYQDPDATSLKYVSGDVTHPQAGAEDALIVHCVDDSGHWGRGGLFTALEKRSAEPRKIYELAGKMKDLSLGGVLLFPVDDKESRNKGQDLLALIVAQHRDRSNVLSGIKMAALEEGLKKIFLAAKKKKASVHLPRIGHATKGFNWYGTERLIWKHLAARGIPTYIYYFPRSK
modifications: left off: His6, end not stated, state not stated
notes: ALC1^RLS Arg anchor (R611) and adjacent residue (S612) mutated to alanines
increase in observed pause duration on lowering remodeler concentration by a factor of 4 ([1]; remodeler concentration lowered 4-fold): 30%
fold decrease of maximum rate for remodeling versus ALC1^fl R860W [2]: ~ 6.4 fold
fold increase of Michaelis constant for remodeling versus ALC1^fl R860W [2]: ~ 5.3 fold
DNA-stimulated ATPase activity, ALC1^fl R860W versus ALC1^fl R611A/S612A/R860W [3]: essentially identical DNA-stimulated ATPase activity
fold reduction of ATPase rate versus ALC1^fl R860W, saturating conditions (Vmax) ([4]; under saturating conditions, Vmax estimated with Michaelis-Menten equation and Km values from nucleosome sliding kinetics): ~ 2 fold
fold decrease in remodeling rate, APM/APM versus WT/WT nucleosomes [5]: ~ 3.2 fold
